In patent EP4635976A1 (Medigene Immunotherapies GmbH, dated 2025):
Values belong to the binder of their own block, whether it stands above or below them.

Experiments:
Test in all cases: cell-based or functional assay
[1] = target: mismatched peptide #79 …
[2] = target: mismatched peptide #228 …
[3] = target: mismatched peptide #221 …
[4] = target: mismatched peptide #244 …
[5] = target: mismatched peptide #246 …
[6] = target: mismatched peptide #324 …
[7] = target: mismatched peptide #323 …
[8] = target: mismatched peptide #243 …
[9] = target: mismatched peptide #45 …
[10] = target: mismatched peptide #84 …
[11] = target: mismatched peptide #15 …
[12] = target: mismatched peptide #247 …
[13] = target: mismatched peptide #257 …
[14] = target: mismatched peptide #31 …
[15] = target: mismatched peptide #160 …
[16] = target: mismatched peptide #76 …
[17] = target: mismatched peptide #62 …
[18] = target: mismatched peptide #278 …
[19] = target: mismatched peptide #41 …
[20] = target: mismatched peptide #116 …
[21] = target: mismatched peptide #280 …
[22] = target: mismatched peptide #9 …
[23] = target: mismatched peptide #239 …
[24] = target: mismatched peptide #47 …
[25] = target: mismatched peptide #240 …
[26] = target: mismatched peptide #236 …
[27] = target: mismatched peptide #265 …

- IFN-γ release (IFNg-ELISA), donor MIT 045 [1]: 0 pg/mL
- IFN-γ release (IFNg-ELISA), donor MIT 045 [2]: 0 pg/mL
- IFN-γ release (IFNg-ELISA), donor MIT 045 [3]: 0 pg/mL
- IFN-γ release (IFNg-ELISA), donor MIT 045 [4]: 0 pg/mL
- IFN-γ release (IFNg-ELISA), donor MIT 045 [5]: 0 pg/mL
- IFN-γ release (IFNg-ELISA), donor MIT 045 [6]: 0 pg/mL
- IFN-γ release (IFNg-ELISA), donor MIT 045 [7]: 0 pg/mL
- IFN-γ release (IFNg-ELISA), donor MIT 045 [8]: 0 pg/mL
- IFN-γ release (IFNg-ELISA), donor MIT 045 [9]: 0 pg/mL
- IFN-γ release (IFNg-ELISA), donor MIT 045 [10]: 0 pg/mL
- IFN-γ release (IFNg-ELISA), donor MIT 045 [11]: 0 pg/mL
- IFN-γ release (IFNg-ELISA), donor MIT 045 [12]: 0 pg/mL
- IFN-γ release (IFNg-ELISA), donor MIT 045 [13]: 0 pg/mL
- IFN-γ release (IFNg-ELISA), donor MIT 045 [14]: 0 pg/mL
- IFN-γ release (IFNg-ELISA), donor MIT 045 [15]: 0 pg/mL
- IFN-γ release (IFNg-ELISA), donor MIT 045 [16]: 0 pg/mL
- IFN-γ release (IFNg-ELISA), donor MIT 045 [17]: 0 pg/mL
- IFN-γ release (IFNg-ELISA), donor MIT 045 [18]: 0 pg/mL
- IFN-γ release (IFNg-ELISA), donor MIT 045 [19]: 0 pg/mL
B1: NY-ESO specific TCR (T11.8-10-17) with Uni-TABS epitope V1 at A245 in loop 2 of TRBC (TCR)
TCR alpha: QKEVEQNSGPLSVPEGAIASLNCTYSDRGSQSFFWYRQYSGKSPELIMFIYSNGDKEDGRFTAQLNKASQYVSLLIRDSQPSDSATYLCAADDKIIFGKGTRLHILPNIQNPDPAVYQLRDSKSSDKSVCLFTDFDSQTNVSQSKDSDVYITDKTVLDMRSMDFKSNSAVAWSNKSDFACANAFNNSIIPEDTFFPSSDVPCDVKLVEKSFETDTNLNFQNLSVIGFRILLLKVAGFNLLMTLRLWSS
TCR beta: DAGVIQSPRHEVTEMGQEVTLRCKPISGHDYLFWYRQTMMRGLELLIYFNNNVPIDDSGMPEDRFSAKMPNASFSTLKIQPSEPRDSAVYFCASSRGGSGYTFGSGTRLTVVEDLNKVFPPEVAVFEPSKAEIAHTQKATLVCLATGFFPDHVELSWWVNGKEVHSGVSTDPQPLKEQPALNDSRYCLSSRLRVSATFWQNPRNHFRCQVQFYGLSENDEWTQDRAGSGDKGEVPKDRFSAGSGKPVTQIVSAEAWGRADCGITSASYHQGVLSATILYEILLGKATLYAVLVSALVLMAMVKRKDF

- IFN-γ release (IFNg-ELISA), donor MIT 045 [20]: 257 pg/mL
- IFN-γ release (IFNg-ELISA), donor MIT038 [1]: 370 pg/mL
- IFN-γ release (IFNg-ELISA), donor MIT038 [2]: 484 pg/mL
- IFN-γ release (IFNg-ELISA), donor MIT 045 [2]: 1200 pg/mL
- IFN-γ release (IFNg-ELISA), donor MIT038 [3]: 900 pg/mL
- IFN-γ release (IFNg-ELISA), donor MIT 045 [3]: 889 pg/mL
- IFN-γ release (IFNg-ELISA), donor MIT038 [21]: 256 pg/mL
- IFN-γ release (IFNg-ELISA), donor MIT038 [4]: 387 pg/mL
- IFN-γ release (IFNg-ELISA), donor MIT 045 [4]: 261 pg/mL
- IFN-γ release (IFNg-ELISA), donor MIT038 [5]: 345 pg/mL
- IFN-γ release (IFNg-ELISA), donor MIT038 [6]: 757 pg/mL
- IFN-γ release (IFNg-ELISA), donor MIT 045 [6]: 628 pg/mL
- IFN-γ release (IFNg-ELISA), donor MIT038 [22]: 258 pg/mL
- IFN-γ release (IFNg-ELISA), donor MIT038 [23]: 312 pg/mL
- IFN-γ release (IFNg-ELISA), donor MIT038 [7]: 3170 pg/mL
- IFN-γ release (IFNg-ELISA), donor MIT 045 [7]: 3000 pg/mL
- IFN-γ release (IFNg-ELISA), donor MIT038 [8]: 499 pg/mL
- IFN-γ release (IFNg-ELISA), donor MIT 045 [8]: 356 pg/mL
- IFN-γ release (IFNg-ELISA), donor MIT038 [9]: 1410 pg/mL
- IFN-γ release (IFNg-ELISA), donor MIT 045 [9]: 1520 pg/mL
- IFN-γ release (IFNg-ELISA), donor MIT 045 [24]: 530 pg/mL
- IFN-γ release (IFNg-ELISA), donor MIT038 [11]: 520 pg/mL
- IFN-γ release (IFNg-ELISA), donor MIT 045 [11]: 306 pg/mL
- IFN-γ release (IFNg-ELISA), donor MIT038 [12]: 537 pg/mL
- IFN-γ release (IFNg-ELISA), donor MIT 045 [12]: 372 pg/mL
- IFN-γ release (IFNg-ELISA), donor MIT038 [13]: 407 pg/mL
- IFN-γ release (IFNg-ELISA), donor MIT038 [25]: 386 pg/mL
- IFN-γ release (IFNg-ELISA), donor MIT038 [14]: 2420 pg/mL
- IFN-γ release (IFNg-ELISA), donor MIT 045 [14]: 1560 pg/mL
- IFN-γ release (IFNg-ELISA), donor MIT038 [15]: 2800 pg/mL
- IFN-γ release (IFNg-ELISA), donor MIT 045 [15]: 2840 pg/mL
- IFN-γ release (IFNg-ELISA), donor MIT038 [16]: 825 pg/mL
- IFN-γ release (IFNg-ELISA), donor MIT 045 [16]: 939 pg/mL
- IFN-γ release (IFNg-ELISA), donor MIT038 [26]: 476 pg/mL
- IFN-γ release (IFNg-ELISA), donor MIT 045 [26]: 400 pg/mL
- IFN-γ release (IFNg-ELISA), donor MIT038 [27]: 400 pg/mL
- IFN-γ release (IFNg-ELISA), donor MIT038 [17]: 942 pg/mL
- IFN-γ release (IFNg-ELISA), donor MIT 045 [17]: 918 pg/mL
- IFN-γ release (IFNg-ELISA), donor MIT038 [18]: 442 pg/mL
- IFN-γ release (IFNg-ELISA), donor MIT038 [19]: 555 pg/mL
- IFN-γ release (IFNg-ELISA), donor MIT 045 [19]: 680 pg/mL
B2: NY-ESO specific TCR (T11.8-10-17) with Uni-TABS epitope V1 at A199 in loop 1 of TRBC (TCR)
TCR alpha: QKEVEQNSGPLSVPEGAIASLNCTYSDRGSQSFFWYRQYSGKSPELIMFIYSNGDKEDGRFTAQLNKASQYVSLLIRDSQPSDSATYLCAADDKIIFGKGTRLHILPNIQNPDPAVYQLRDSKSSDKSVCLFTDFDSQTNVSQSKDSDVYITDKTVLDMRSMDFKSNSAVAWSNKSDFACANAFNNSIIPEDTFFPSSDVPCDVKLVEKSFETDTNLNFQNLSVIGFRILLLKVAGFNLLMTLRLWSS
TCR beta: DAGVIQSPRHEVTEMGQEVTLRCKPISGHDYLFWYRQTMMRGLELLIYFNNNVPIDDSGMPEDRFSAKMPNASFSTLKIQPSEPRDSAVYFCASSRGGSGYTFGSGTRLTVVEDLNKVFPPEVAVFEPSKAEIAHTQKATLVCLATGFFPDHVELSWWVNGKEVHSGVSTDPQPLKEQPAGSGDKGEVPKDRFSAGSGLNDSRYCLSSRLRVSATFWQNPRNHFRCQVQFYGLSENDEWTQDRAKPVTQIVSAEAWGRADCGITSASYHQGVLSATILYEILLGKATLYAVLVSALVLMAMVKRKDF
